The nature of the series: soluble on expression in E. coli; label from the status in PepcDB or PDB records.
With “MIPLVAPRSVIERVEAICREAGGILRVAPYRRLQVGLITTGSEVYKGRIKDAFGPVVRAKIASYGSEVALEKVVPDDAAAIHDAIEEMLAAGMQMVVLTGGMSVDPDDVTPDGIRRSGAEVVTYGAPVLPGAMFMLAYRGDVPIMGLPGCVMYYRATVFDLVLPRILVGERLEHHHHHH”, the “soluble on expression in E. coli” value is “not soluble”. The value for “MHNSTGRYVLGMEVMTPTGMNLDIATSVANADLARFDQVVGEDGIERFTFAKIEYTKESDLFEKTCELTANLLDSLLTQLPRS” was “not soluble”. For the sequence “MSRPAASLGLMRMIEAVPDRLDGSPRQLRRFWSDEFKETAVEQACQPGVNMSAVARQIGILPSQLYRWRRELLASDKPGEAPAAVDPQSVAPDANPVVEIVIDGIVVRADRHIEEAHLQRVIRAVRSALEHHHHHH”, the “soluble on expression in E. coli” value is on record as “soluble”. Turning to “MAPKDITFVERCYKYIDMNKNNWSPYTVTSTKSWVKNYIEPFFKNLKLTEVNPSSVQAFVNYNFNNSTFTSAKVRYSFLSSVIREAYRLREIQENSCDFIKLPLEHHHHHH”, the “soluble on expression in E. coli” value was “soluble”. The value for “MTSVGVPIKILHEAEGHMVTLETVTGEVYRGKLSEAEDNMNCQLAETVVTFRDGRSHQLDNVFIRGNKIRFMILPDMLKNAPMFKNIGRAQKGAIGMGLGGLDQRGRGRGTAFRRPMGRGGPRGMSRPGGAPTFRG” was “not soluble”; that for “MGPLLVWHRGDLRLHDHPALLEALARGPVVGLVVLDPNNLKTTPRRRAWFLENVRALREAYRARGGALWVLEGLPWEKVPEAARRLKAKAVYALTSHTPYGRYRDGRVREALPVPLHLLPAPHLLPPDLPRAYRVYTPFSRLYRGAAPPLPPPEALPKGPEEGEIPREDPGLPLPEPGEEAALAGLRAFLEAKLPRYAEERDRLDGEGGSRLSPYFALGVLSPRLAAWEAERRGGEGARKWVAELLWRDFSYHLLYHFPWMAERPLDPRFQAFPWQEDEALFQAWYEGKTGVPLVDAAMRELHATGFLSNRARMNAAQFAVKHLLLPWKRCEEAFRHLLLDGDRAVNLQGWQWAGGLGVDAAPYFRVFNPVLQGERHDPEGRWLKRWAPEYPSYAPKDPVVDLEEARRRYLRLARDLARG” was “soluble”. The value for “MGSDKIHHHHHHMEDILKYLQVHVPFRMLEGGFLDTVIAKGISPEIGFDCAILDATGKDRFREVADRFSDAGLRVTFHAPFMDLRPGAIDPRIREVSRERIQQVFDLVPLFRPRTIVCHPSFDSRYYVSSERKWLENSTLTWSTFVEQAAEFDTLLLLENVYEKEPRQFVHLLTALDSLRVRFCLDTGHCNAFSDAPLSSWLEELGTFLGEVHLHDNDGSRDAHLPIGEGNFPFMELFGFLKTKVNRPILTLEAHSADHLSRTLETLRKNRLFGLI” was “not soluble”; that for “RKMFRALMPALEELTFDPSSAHPSLVVSSSGRRVECSEQKAPPAGEDPRQFDKAVAVVAHQQLSEGEHYWEVDVGDKPRWALGVIAAEAPRRGRLHAVPSQGLWLLGLREGKILEAHVEAKEPRALRSPERRPTRIGLYLSFGDGVLSFYDASDADALVPLFAFHERLPRPVYPFFDVCWHDKGKNAQPLLLV” was “soluble”. The value for “MGKSLDEQFEAAVWIINALPKNGPIKTSINDQLQMYSLYKQATSGKCDTIQPYFFQIEQRMKWNAWNQLGNMDEAEAKAQYVEKMLKLCNQAEAEHNLMEFLSDPTIADLLPKQNQLREHFATLGRTTVKGFEGETVEINGVSISF” was “not soluble”; that for “MTRLAEILDQMSAVLNDLKTVMDQEQQHLSMGQINGSQLQWITEQKSSLLATLDYLEQLRRKEPNTANSVDISQRWQEITVKTQQLRQMNQHNGWLLEGQIERNQQALEMLKPHQEPTLYGANGQTSTTHRGGKKISILEHHHHHH” was “soluble”. Take “MTYLETAAQFYSEVAQTPQVGLCCVQSTPLQLPGLKIPLPMQEMNYGCGTTVHPTELGKQPTVLYVGVGGGLEALQFAYFSRRPGAVIAVEPVAAMREAAARNLEMALTDNPWFDSSFVEIREGDAFNLPVADGSVDIVAQNCLFNIFEPEDLTRALKEAYRVLKPGGRLQMSDPIATSPVPAHLQQDERLRAMCLSGALTYEEYTQRIIDAGFGQIEIRARRPYRLLDSQTYNLETHLLLESLDSVSFKVPMPEDGACIFTGRTAIYAGCDAFFDDKAGHILQRGIPATVCDKTAAKLATVKPKEVIITDSTWHYNGGGCCLEHHHHHH”: the “soluble on expression in E. coli” value is given as “soluble”. The value for “MTVQIPKLLFLHGFLQNGKVFSEKSSGIRKLLKKANVQCDYIDAPVLLEKKDLPFEMDDEKWQATLDADVNRAWFYHSEISHELDISEGLKSVVDHIKANGPYDGIVGFSQGAALSSIITNKISELVPDHPQFKVSVVISGYSFTEPDPEHPGELRITEKFRDSFAVKPDMKTKMIFIYGASDQAVPSVRSKYLYDIYLKAQNGNKEKVLAYEHPGGHMVPNKKDIIRPIVEQITSSLQEASE” was “soluble”. On to “MDESAALRAFQDALRTQRPEFGQFFLARLLGLDISYPDGQCLIVFEPQDFLFNPQGSLHGGIIATVMDISMGHLLNHVQGAGLTLEMKTQYLKAVHQGTVYCRGEFLQRGRSVSFLKSTLTDAQGEPLAMATSTWKALSPLEHHHHHH”, for which the “soluble on expression in E. coli” value was “soluble”. The value for “MGSDKIHHHHHHMARVKEEADRISEQANSHIENIRRQIEQEKNDWAAEKQKLIEEAKAEGFEQGVALGKAEAMKQYAELIGQANTITEMSRKAVEDKLEDANEEIVELAVALAKKVWQQKSDDKEAFLLLVQQVINEVKEYDDISIYVDPYYYETIFQQKDEIQQLLYKECRLGIYADEKAQKGTCYIETPFGRVDASVDTQLMQLKDKLLTALEAGAAE” was “not soluble”; that for “MPSEKAFIQHLRTASFQGLHLHHFHQKVGKCGVVGFDIHIFPTLLPAAQGILDIQLGLFRIDCAPLAVYRRTQVDFIHTVIDGIASDQAFSEVVQILRRLNLGHFTDTHLIAQARRFIADFGNIRPMRRGKAETFCRCFRFDGIDRIHGDFRQCGHINRLAAGKNCRNGKRDKVFFHAPIIIKFALRKQIVRQEK” was “not soluble”; that for “VIRRSSLSSTESEIRMDATTVSTTDDIWSPSWDDPFEPTTDHDDEFAELTDALRAVQEAVTRSRPTPEAAGRAARTLRDLAARLAAFEVGEDEQISGRRWDLAGRGQTLTPALHLDEVTENRARGHVVVGRFHSGRYAMNGGVTPLIFDEILARLANSCGRPWARTAYLHVNYRAPAPLDVELRVEAEFAGQDGRKRFMRGAMYHGDVLVADVEGLWIELKPEQTQNVSLAVGWGAEENS” was “not soluble”. The value for “MLFHLPKLPAELRVSHLNARVNEQRKKIAQTTASKLEFLQLTQQLVKEAKIRKKNNQKIFVLDFKGDIQASAVDQLREEITLILATAKSGKDRVVLRLESPGGMVHGYGLAAAQLVRLRDAGFHLTIVVDKVAASGGYMMACIANEIVSAPFAILGSIGVVAQVPNFNRLLKEHNVDFELYTAGEYKRTVTMFGENTPEGKAKFEEELKQTHALFKHFVEKYRPQLNVEKVATGEHWYGQDALDLNLVDKLQTSDEYLLSLLPQHDVYVITTRKKPTLGERLGLQAAQLADSFIPAVMNKVVESLVNANSHLVQMRDPKILEHHHHHH” was “not soluble”; that for “GPLGSPEFMEGVLYKWTNYLTGWQPRWFVLDNGILSYYDSQDDVCKGSKGSIKMAVCEIKVHSADNTRMELIIPGEQHFYMKAVNAAERQRWLVALGSSKASLTDTRT” was “soluble”. The value for “MAHHHHHHMSYQPPYGYASSPQASPYFPGGNYYSTPPPIPQQQPFQTSPLFGTEQEAVQWFRAVSSSSGGYISVPQLQSALSQGGMNFSYATTERLISMFDANLDGAIDFTEFQELHRYILSMRGGFSQRDTSRDGLLEGNEVRMALSANFYQVDDNTFQTLMRKFDRRKRGSLGFDDYIELSLFVGKANDAFKAQSQGKASATFSFSSFLSAGASLL” was “soluble”; that for “MLEAPLLSICIPAYNRPNWLQRGLESIAVGEGSDIEIVITDDSDTDQGQAIASEVLKNWSGSWCYEHHQQPLGMAQNWNRAIQWATGQYVMVLHDDDFFLPQGLGLLVNKLRQLGSSSPVLLFGVRVVDAQERVVKRQGFRQDKLLPPHDALIRLFSDSSFVRFPAMVIRRDLFTEVGYFNPDWREPCDLEMWMRLFARYGVYCCREATVAYRVHGQALTMGSFHGETVNILLRLFGELEKLNILTTRDIEFCKGLFFHQYILAGAWRQLRRRRWREFKQVMGLFDLPELKSLSCPVKWRFLRGLFSLTLEHHHHHH” was “not soluble”.

Values taken from the DeepSol protein solubility set.
